Each block holds one molecule with its values, some of them ahead of it.
Key:
[1] = target: T1, humanized FGFR3c (hR3c)-expressing BaF3 cells (Homo sapiens, UniProt P22607, A441S/A461E/A470D/A499P/A500N/A559S/A717S/A734V/A765M/C582S/D512S/D516E/D576E/D580N/D722E/D758Q/D785E/DEL405-414/E426D/E447G/E729D/E768D/F566Y/F579Y/F591S/F767L/G446S/G448T/G548D/G773S/G774F/H721N/I440P/I494L/I698V/I726M/INS417HSQMAVHKLAKSI/INS423TV/INS780T/K420R/K464R/K501R/K583H/L398M/L425A/L457Y/L554I/L645I/L752V/M488L/N428S/N434G/N453G/N644H/P401G/P402T/P436L/P502V/P584N/P778R/Q611K/Q775P/R397K/R399K/R416D/R498K/R568Q/S432N/S468P/S578C/S781C/T435V/T450M/T473V/T504K/T581P/T590S/T753A/T757N/V503T/V523I/V642I/V670I/V751I/V754L); experiment: DNA synthesis in humanized FGFR3c-expressing BaF3 cells; assay type: cell-based; conditions: humanized FGFR3c only; 10 μg/ml heparin
T1 construct: expressed in transfected cells; host or cells: BaF3 (mouse pro-B) cells; pSRalpha vector
Procedure: The homology between human FGFR3 and mouse FGFR3 at the amino acid sequence level is 93%. […] The cDNA of humanized FGFR3c was prepared from a commercially available human RNA sample (Takara Bio Inc.) by PCR. The sequence of its intracellular portion was substituted with the sequence of humanized FGFR1, and it was then introduced into an expression vector having an SRalpha promoter (pSRalpha). The FGFR3c expression vector was introduced into BaF3 cells by an electroporation method, so as to obtain FGFR3c-expressing BaF3 cells as G418-resistant clones. In the case of FGFR3c/betaKlotho-co-expressing cells, a betaKlotho expression vector was introduced into the FGFR3c-expressing BaF3 cells, so as to obtain the aforementioned cells as Puromycin-resistant clones. In the presence of heparin, humanized FGF21 was added in various types of concentrations to FGFR3c-expressing cells or FGFR3c/betaKlotho-co-expressing cells, and the amount of DNA synthesized was then measured.

[2] = target: T2, BaF3 cells that had co-expressed FGFR1c and Klotho (Mus musculus, UniProt O35082+P16092); experiment: DNA synthesis in BaF3 cells co-expressing FGFR1c and Klotho; assay type: cell-based; conditions: presence or absence of heparin
T2 construct: the entire-length cDNA of mouse FGFR1c had been cloned; expressed in transfected cells; host or cells: BaF3 (mouse pro-B) cells
Procedure: Specifically, BaF3 cell that had co-expressed FGFR1c and betaKlotho and BaF3 cells that had co-expressed FGFR1c and Klotho were prepared by the same transformation method and under the same culture conditions as those applied in Example 4. Thereafter, FGF21 and FGF23 were added to both types of transformed cells in the presence or absence of heparin, and the amount of DNA synthesized was then measured.

T2 sequence (P16092 22-822): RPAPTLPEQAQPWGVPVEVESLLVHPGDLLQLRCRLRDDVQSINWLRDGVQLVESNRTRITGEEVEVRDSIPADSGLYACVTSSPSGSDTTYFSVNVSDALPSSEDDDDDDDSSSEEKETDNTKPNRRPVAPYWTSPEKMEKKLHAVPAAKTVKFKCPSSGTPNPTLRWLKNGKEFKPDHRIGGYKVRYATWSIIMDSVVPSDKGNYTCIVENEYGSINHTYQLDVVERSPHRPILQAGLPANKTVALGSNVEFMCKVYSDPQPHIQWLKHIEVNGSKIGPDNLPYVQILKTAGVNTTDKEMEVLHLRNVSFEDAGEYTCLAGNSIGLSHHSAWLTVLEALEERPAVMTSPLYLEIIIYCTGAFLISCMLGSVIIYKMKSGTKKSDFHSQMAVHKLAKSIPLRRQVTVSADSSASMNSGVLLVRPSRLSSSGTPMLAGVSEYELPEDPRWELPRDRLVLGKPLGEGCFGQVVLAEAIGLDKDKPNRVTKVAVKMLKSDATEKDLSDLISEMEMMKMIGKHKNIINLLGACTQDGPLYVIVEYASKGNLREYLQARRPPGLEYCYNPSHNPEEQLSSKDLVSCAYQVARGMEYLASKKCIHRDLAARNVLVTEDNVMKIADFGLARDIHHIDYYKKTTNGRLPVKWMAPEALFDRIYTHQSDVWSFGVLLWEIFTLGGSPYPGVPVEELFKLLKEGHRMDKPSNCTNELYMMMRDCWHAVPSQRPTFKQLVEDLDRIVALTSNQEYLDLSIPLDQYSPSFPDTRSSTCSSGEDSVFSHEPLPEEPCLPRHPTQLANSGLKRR
T2 sequence (O35082 35-1014): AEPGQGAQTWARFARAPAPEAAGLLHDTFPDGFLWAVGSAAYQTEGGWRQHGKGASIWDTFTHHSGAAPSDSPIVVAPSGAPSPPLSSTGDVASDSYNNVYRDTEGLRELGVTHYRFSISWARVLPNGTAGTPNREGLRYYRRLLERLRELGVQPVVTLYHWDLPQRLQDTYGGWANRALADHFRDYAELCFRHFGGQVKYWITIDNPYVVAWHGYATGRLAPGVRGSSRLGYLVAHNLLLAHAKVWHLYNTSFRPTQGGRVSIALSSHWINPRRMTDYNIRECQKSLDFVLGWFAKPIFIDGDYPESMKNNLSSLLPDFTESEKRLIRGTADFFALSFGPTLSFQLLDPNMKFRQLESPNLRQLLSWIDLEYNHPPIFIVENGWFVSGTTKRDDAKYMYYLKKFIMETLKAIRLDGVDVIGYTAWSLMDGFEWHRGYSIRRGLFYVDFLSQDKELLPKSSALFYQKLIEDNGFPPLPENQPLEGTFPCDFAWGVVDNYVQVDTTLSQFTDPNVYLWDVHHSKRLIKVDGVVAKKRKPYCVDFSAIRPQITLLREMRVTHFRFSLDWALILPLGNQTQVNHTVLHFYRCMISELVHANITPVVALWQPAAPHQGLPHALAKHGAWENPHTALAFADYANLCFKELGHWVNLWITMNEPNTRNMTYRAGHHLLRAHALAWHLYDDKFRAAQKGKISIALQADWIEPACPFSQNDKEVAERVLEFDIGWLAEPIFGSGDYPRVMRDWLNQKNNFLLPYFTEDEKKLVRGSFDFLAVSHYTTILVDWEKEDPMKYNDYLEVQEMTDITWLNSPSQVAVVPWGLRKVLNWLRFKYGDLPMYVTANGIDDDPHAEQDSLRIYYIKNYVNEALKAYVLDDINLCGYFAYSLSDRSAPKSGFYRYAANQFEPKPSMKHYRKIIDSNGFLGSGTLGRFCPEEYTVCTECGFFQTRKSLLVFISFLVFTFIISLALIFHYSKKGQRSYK
T1 sequence (P22607 other isoform, or with tags, fused parts or gaps with the stated changes): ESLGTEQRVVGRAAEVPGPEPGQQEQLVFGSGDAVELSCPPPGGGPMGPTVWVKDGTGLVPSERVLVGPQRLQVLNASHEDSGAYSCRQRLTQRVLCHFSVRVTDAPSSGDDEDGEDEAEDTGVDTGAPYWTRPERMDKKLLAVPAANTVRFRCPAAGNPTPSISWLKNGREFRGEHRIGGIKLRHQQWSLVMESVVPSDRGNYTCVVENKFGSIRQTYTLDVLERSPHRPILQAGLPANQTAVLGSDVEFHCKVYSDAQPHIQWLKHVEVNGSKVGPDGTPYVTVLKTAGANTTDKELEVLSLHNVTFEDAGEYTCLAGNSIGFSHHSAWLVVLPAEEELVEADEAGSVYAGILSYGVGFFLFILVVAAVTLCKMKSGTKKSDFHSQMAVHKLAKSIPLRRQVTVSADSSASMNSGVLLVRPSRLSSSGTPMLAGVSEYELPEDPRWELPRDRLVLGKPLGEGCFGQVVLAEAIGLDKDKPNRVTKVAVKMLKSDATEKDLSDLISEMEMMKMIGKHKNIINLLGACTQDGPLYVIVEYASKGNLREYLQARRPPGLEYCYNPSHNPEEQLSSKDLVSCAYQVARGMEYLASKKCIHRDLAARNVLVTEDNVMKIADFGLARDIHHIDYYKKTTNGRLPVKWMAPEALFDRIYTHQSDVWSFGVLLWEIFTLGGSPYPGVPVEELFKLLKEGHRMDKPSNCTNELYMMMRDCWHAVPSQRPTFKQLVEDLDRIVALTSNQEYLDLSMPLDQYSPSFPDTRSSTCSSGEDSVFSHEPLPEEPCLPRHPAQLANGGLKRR

- amount of DNA synthesized (thymidine incorporation) [1]: promoted the DNA synthesis
Molecule: FGF1: conventional FGF used as a control

- amount of DNA synthesized [2]: did not react with FGFR1c
B1: FGF21: fibroblast growth factor 21; mouse-derived protein used in Examples 1-7 and 10-13 (protein)
chain: AYPIPDSSPLLQFGGQVRQRYLYTDDDQDTEAHLEIREDGTVVGAAHRSPESLLELKALKPGVIQILGVKASRFLCQQPDGALYGSPHFDPEACSFRELLLEDGYNVYQSEAHGLPLRLPQKDSPNQDATSWGPVRFLPMPGLLHEPQDQAGFLPPEPPDVGSSDPLSMVEPLQGRSPSYAS

Reference: patent publication US8697369B2, “Method for screening a test substance for activating a receptor associated with FGF 21 activity” (National Institute of Advanced Industrial Science and …, priority 2007, dated 2014)
